Test results from publication PMC4138198.

How the values were obtained:
[1] = target: Pmr (plasmid pCAR1 (isolated originally from P. resinovorans CA10)); assay: SEC; 1 ml of purified protein at 140 uM on HiLoad 16/60 Superdex 200 prep grade in buffer B (20 mM Tris-HCl pH 7.5, 4°C, 0.5 M NaCl, 10% glycerol, 0.5 M imidazole); fractions checked by Tricine-SDS-PAGE and anti-His Western blot
TurA (P. putida KT2440) = assay: SPR; Biacore 2000, biotinylated Pmr, TurA or TurB (about 500 RU) immobilised on streptavidin chip SA, Pmr as analyte at lower concentrations; 4°C, 20 mM Tris-HCl pH 7.5, 0.5 M NaCl, 5% glycerol, 475 mM imidazole, 30 ul/min; Req divided by the immobilised amount
[2] = target: Pmr (plasmid pCAR1 (isolated originally from P. resinovorans CA10)); assay: as above
[3] = target: Pmr-R8A (plasmid pCAR1 (isolated originally from P. resinovorans CA10)); assay: SEC; 1 ml of purified protein at 140 uM on HiLoad 16/60 Superdex 200 prep grade in buffer B (20 mM Tris-HCl pH 7.5, 4°C, 0.5 M NaCl, 10% glycerol, 0.5 M imidazole); fractions checked by Tricine-SDS-PAGE and anti-His Western blot

Row | stoichiometry N [1] | binding amount of APmr per ligand homodimer, relative to LTurB-APmr (TurA (P. putida KT2440)) [fold] | binding amount of APmr per ligand homodimer, relative to LTurB-APmr [2] [fold] | stoichiometry N [3] | Substance
1 | 35 -mer | 2 | 2 |  | Pmr (natural protein)
2 |  |  |  | 6 -mer | Pmr-R8A (natural protein)
